Article PMC11649690, “CEP signaling coordinates plant immunity with nitrogen status” (Nature Communications, 2024)
Non-standard residues stand in square brackets, D forms with d. No end group written: not given here. Hyp = O=C(O)[C@@H]1C[C@@H](O)CN1

Tests used:
[1] = tested on: cytosolic calcium concentrations ([Ca^2+]cyt), Col-0^AEQ seedlings; assay: Calcium influx assay (aequorin seedlings); type: in vivo, Arabidopsis thaliana; conditions: wild type, 30 min
Protocol: Apoaequorin-expressing liquid-grown eight-day-old seedlings were transferred individually to a 96-well plate containing 100 µl of 5 µM coelenterazine-h (PJK Biotech, Germany) and incubated in the dark overnight. Luminescence was measured using a plate reader (Luminoskan Ascent 2.1, Thermo Fisher Scientific, USA). Background luminescence was recorded by scanning each well 12 times at 10 s intervals, before adding a 25 µl elicitor solution to the indicated final concentration. Luminescence was recorded for 30 min at the same interval. The remaining aequorin was discharged using 2 M CaCl2, 20% ethanol. The values for cytosolic Ca^2+ concentrations ([Ca^2+]cyt) were calculated as luminescence counts per second relative to total luminescence counts remaining (L/Lmax).

[2] = molecular target: T1, RECEPTOR-LIKE KINASE 7 ectodomain (RLK7^ECD) (Arabidopsis thaliana, UniProt F4I2N7 29-608); assay: ITC; 300 μM peptide in the syringe injected into 30 μM receptor ectodomain in the cell; 25 °C; 20 mM citrate pH 5.0, 150 mM NaCl (SEC buffer); N fitted to 1; duplicates; conditions: both partners purified
T1 construct: RLK7, Arabidopsis thaliana, ectodomain, residues 29 to 608; Secreted with a 30 K signal peptide from the modified pFastBAC vector; a TEV site stood before the StrepII-9xHis tag, so residues of the site may be left after cleavage; source: Trichoplusia ni Tnao38 cells, secreted, purified (Ni2+, Strep-Tactin, TEV, SEC); not shown: StrepII, C-terminal, cleaved; His9, C-terminal, cleaved
T1 sequence (looked up): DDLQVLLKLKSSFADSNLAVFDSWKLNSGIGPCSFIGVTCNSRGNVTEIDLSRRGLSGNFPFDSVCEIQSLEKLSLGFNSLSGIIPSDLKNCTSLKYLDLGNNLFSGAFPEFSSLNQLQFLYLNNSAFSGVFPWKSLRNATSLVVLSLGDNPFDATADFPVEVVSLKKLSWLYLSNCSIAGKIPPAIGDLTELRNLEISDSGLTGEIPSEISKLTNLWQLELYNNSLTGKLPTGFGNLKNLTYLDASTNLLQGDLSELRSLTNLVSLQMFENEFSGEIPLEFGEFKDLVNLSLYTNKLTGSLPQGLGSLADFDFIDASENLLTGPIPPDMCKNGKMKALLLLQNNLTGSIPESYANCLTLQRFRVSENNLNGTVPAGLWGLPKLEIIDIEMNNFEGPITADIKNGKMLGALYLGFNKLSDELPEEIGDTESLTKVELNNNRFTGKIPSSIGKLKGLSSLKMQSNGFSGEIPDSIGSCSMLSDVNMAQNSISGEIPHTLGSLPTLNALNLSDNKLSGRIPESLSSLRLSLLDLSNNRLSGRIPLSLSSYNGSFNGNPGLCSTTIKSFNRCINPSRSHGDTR

[3] = molecular target: T2, CEP RECEPTOR 2 ectodomain (CEPR2^ECD) (Arabidopsis thaliana, UniProt Q9C7T7 32-620); assay: as above; conditions: both partners purified
T2 construct: CEPR2, Arabidopsis thaliana, ectodomain, residues 32 to 620; Secreted with a 30 K signal peptide from the modified pFastBAC vector; a TEV site stood before the StrepII-9xHis tag, so residues of the site may be left after cleavage; source: Trichoplusia ni Tnao38 cells, secreted, purified (Ni2+, Strep-Tactin, TEV, SEC); not shown: StrepII, C-terminal, cleaved; His9, C-terminal, cleaved
T2 sequence (looked up): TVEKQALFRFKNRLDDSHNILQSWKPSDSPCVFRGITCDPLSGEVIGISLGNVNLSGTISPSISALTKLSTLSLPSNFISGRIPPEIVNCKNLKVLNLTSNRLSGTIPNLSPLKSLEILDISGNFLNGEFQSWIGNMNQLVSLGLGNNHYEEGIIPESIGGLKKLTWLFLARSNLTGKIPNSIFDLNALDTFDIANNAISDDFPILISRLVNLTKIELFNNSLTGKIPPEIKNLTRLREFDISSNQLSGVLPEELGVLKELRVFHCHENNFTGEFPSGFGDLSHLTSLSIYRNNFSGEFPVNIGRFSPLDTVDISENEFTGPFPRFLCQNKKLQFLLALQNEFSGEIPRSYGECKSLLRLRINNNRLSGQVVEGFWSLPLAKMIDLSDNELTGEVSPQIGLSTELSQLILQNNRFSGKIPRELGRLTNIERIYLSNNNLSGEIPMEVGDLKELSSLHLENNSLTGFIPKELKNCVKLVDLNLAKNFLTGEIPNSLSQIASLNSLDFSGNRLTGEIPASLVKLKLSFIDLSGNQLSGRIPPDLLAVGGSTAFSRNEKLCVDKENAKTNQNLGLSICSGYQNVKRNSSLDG

Molecule | calcium influx [1] | Kd [2] | Kd [3]
AFR[Hyp]THQG[Hyp]SQGIGH [CEP4-15mer, 15mer peptide lacking the N-terminal D residue] | triggered a dose-dependent calcium influx with no significant differences to the response elicited by the 16mer peptide |  | 
RLASG[Hyp]SPRGRGH [PAMP-INDUCED PEPTIDE 1 (PIP1)] |  | 0.5 µM | 
DFRPTNPGNSPGVGH (peptide, UniProt Q8L8Y3 72-86, looked up, CEP1 peptide, the mature CEP domain cut from the CEP1 precursor, Arabidopsis thaliana; source: synthetic peptide (Pepmic, at least 90% purity)) [C-… ENCODED PEPTIDE 1 (CEP1)] |  |  | 9.3 µM
DAFR[Hyp]THQG[Hyp]SQGIGH (CEP4 peptide domain of the CEP4 precursor, Arabidopsis thaliana (AT2G35612); 16mer with N-terminal D and C-terminal H; a 15mer without the N-terminal D is reported only for calcium influx; source: synthetic peptide (Pepmic, at least 90% purity)) [C-… ENCODED PEPTIDE 4 (CEP4), 16mer] |  | 9 µM | 15.7 µM
